Experimental findings from patent US20260055148A1 (USTAV ORGANICKE CHEMIE A BIOCHEMIE AV CR V V I, published 2026) are described below.

Positions count from the first letter of the chain named. Names and notes keep the numbering of the source.

Assay [1] deals with His-C3d N1134A (human) (UniProt P01024). Nature of the assay: SPR, relative to wild type C3d. A general note: Surface plasmon resonance follows binding to a sensor surface in real time, without labels.
The target is the same in assay [2]. The assay is described as follows: SPR BIAcore T200, biotinylated ISG65-Avi immobilised, C3d N1134A as analyte.
For assay [3] the target is unchanged. Nature of the assay: SPR BIAcore T200, biotinylated ISG65-Avi immobilised, C3d N1134A as analyte; kon1.
The target is the same in assay [4]. The assay is described as follows: SPR BIAcore T200, biotinylated ISG65-Avi immobilised, C3d N1134A as analyte; koff1.
In assay [5] the target is T1, His-C3d-Avi, biotinylated (human complement C3d with N-terminal His-tag and C-terminal Avi-tag) (human, UniProt P01024 996-1303, site-specific biotinylation of the C-terminal Avi-tag).
T1 construct: domain: C3d; SPR ligand for the ISG65 mutants; not shown: N-terminal His-tag (pET15b); C-terminal Avi-tag
The assay is described as follows: SPR, relative to wild type ISG65.

Assay [6] addresses T1, His-C3d-Avi, biotinylated (human …). The assay is described as follows: SPR BIAcore T200, biotinylated C3d-Avi immobilised, ISG65 mutant as analyte.
Assay [7] has the same target. Nature of the assay: SPR BIAcore T200, biotinylated C3d-Avi immobilised, ISG65 mutant as analyte; kon1.
Assay [8] shares this target. Nature of the assay: SPR BIAcore T200, biotinylated C3d-Avi immobilised, ISG65 mutant as analyte; koff1.
Another assay deals with T2, His-C3d E1110A (human, UniProt P01024 996-1303).
T2 construct: domain: C3d; not shown: His-tag
The assay is described as follows: SPR, relative to wild type C3d.

Assay [9] concerns the target T3, His-C3d (recombinant human complement C3d, wild type) (human, UniProt P01024 996-1303).
T3 construct: domain: C3d; Produced in E. coli; also called C3d Wt; TED; not shown: His-tag
Nature of the assay: SPR, relative to wild type C3d.

Assay [10] has as its target T4, His-C3d L1109A (human, UniProt P01024 996-1303).
T4 construct: domain: C3d; not shown: His-tag
The assay is described as follows: SPR, relative to wild type C3d.

Assay [11] has as its target T5, C3c (fragment of human complement C3) (human, UniProt P01024 23-667; P01024 749-954; P01024 1321-1663).
T5 construct: domain: C3c
The assay is described as follows: SPR, biotinylated ISG65 immobilised, C3c as analyte.

Assay [12] deals with T6, C3a (ANA domain of human complement C3, released) (human, UniProt P01024 672-748).
T6 construct: domain: C3a
The assay is described as follows: SPR BIAcore T200, biotinylated ISG65-Avi immobilised, C3a as analyte.

Assay [13] addresses T7, C3b (human complement C3b) (human, UniProt P01024 23-667; P01024 749-1663).
T7 construct: domain: β-chain of C3b;domain: α-chain of C3b
The assay is described as follows: SPR BIAcore T200, biotinylated ISG65-Avi immobilised, C3b as analyte.

Assay [14] deals with T3, His-C3d (recombinant human complement …). The assay is described as follows: SPR BIAcore T200, biotinylated ISG65-Avi immobilised, C3d Wt as analyte.
For assay [15], the target named is T8, C3 (H2O) (human complement C3 with hydrolysed thioester) (human, UniProt P01024 23-667; P01024 672-1663).
T8 construct: mature
Nature of the assay: SPR BIAcore T200, biotinylated ISG65-Avi immobilised, C3 (H2O) as analyte.

Assay [16] has as its target T7, C3b (human complement C3b). Nature of the assay: SPR BIAcore T200, biotinylated ISG65-Avi immobilised, C3b as analyte; kon1.
Assay [17] deals with T7, C3b (human complement C3b). Nature of the assay: SPR BIAcore T200, biotinylated ISG65-Avi immobilised, C3b as analyte; koff1.
Assay [18] has as its target T4, His-C3d L1109A. Nature of the assay: SPR BIAcore T200, biotinylated ISG65-Avi immobilised, C3d L1109A as analyte.
Assay [19] deals with T3, His-C3d (recombinant human complement …). The assay is described as follows: SPR BIAcore T200, biotinylated ISG65-Avi immobilised, C3d Wt as analyte; kon1.
The target is the same in assay [20]. The assay is described as follows: SPR BIAcore T200, biotinylated ISG65-Avi immobilised, C3d Wt as analyte; koff1.
Assay [21] deals with T8, C3 (H2O) (human complement C3 with …). Nature of the assay: SPR BIAcore T200, biotinylated ISG65-Avi immobilised, C3 (H2O) as analyte; kon1.
Assay [22] shares this target. The assay is described as follows: SPR BIAcore T200, biotinylated ISG65-Avi immobilised, C3 (H2O) as analyte; koff1.
The target in assay [23] is T9, Native human complement C3 (human, UniProt P01024 23-667; P01024 672-1663).
T9 construct: mature; also called native C3; human C3
Nature of the assay: SPR BIAcore T200, biotinylated ISG65-Avi immobilised, native C3 as analyte; kon1; kon1, first step of the two-step fit.

Assay [24] deals with T9, Native human complement C3. Nature of the assay: SPR BIAcore T200, biotinylated ISG65-Avi immobilised, native C3 as analyte; koff1; koff1, first step of the two-step fit.
In assay [25] the target is T9, Native human complement C3. Nature of the assay: SPR BIAcore T200, biotinylated ISG65-Avi immobilised, native C3 as analyte; overall KD of a two-step fit (kon1, kon2, koff1, koff2).
Assay [26] concerns the target T1, His-C3d-Avi, biotinylated (human …). Nature of the assay: SPR BIAcore T200, biotinylated C3d-Avi immobilised, ISG65 mutant as analyte; kon1; kon1, first step of the two-step fit.
The target is the same in assay [27]. The assay is described as follows: SPR BIAcore T200, biotinylated C3d-Avi immobilised, ISG65 mutant as analyte; koff1; koff1, first step of the two-step fit.
For assay [28] the target is unchanged. Nature of the assay: SPR BIAcore T200, biotinylated C3d-Avi immobilised, ISG65 mutant as analyte; overall KD of a two-step fit (kon1, kon2, koff1, koff2).
Assay [29] deals with T7, C3b (human complement C3b). The assay is described as follows: cell-based or functional assay.

T3 sequence (P01024 996-1303 limits assumed): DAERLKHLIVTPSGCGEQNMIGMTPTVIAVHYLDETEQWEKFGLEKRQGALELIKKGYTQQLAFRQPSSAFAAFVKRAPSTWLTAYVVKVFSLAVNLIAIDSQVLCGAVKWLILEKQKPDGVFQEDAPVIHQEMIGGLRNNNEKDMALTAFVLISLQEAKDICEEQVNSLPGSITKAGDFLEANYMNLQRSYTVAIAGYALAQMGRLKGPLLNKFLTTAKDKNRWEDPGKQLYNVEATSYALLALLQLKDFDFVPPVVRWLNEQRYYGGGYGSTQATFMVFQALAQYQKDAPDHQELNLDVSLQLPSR
His-C3d N1134A (human), sequence (P01024 996-1303, stated change not applied): as the sequence (P01024 996-1303 limits assumed) above
T1 sequence (P01024 996-1303 limits assumed): as above
T8 sequence (P01024 23-667 limits assumed, chain 1 of 2): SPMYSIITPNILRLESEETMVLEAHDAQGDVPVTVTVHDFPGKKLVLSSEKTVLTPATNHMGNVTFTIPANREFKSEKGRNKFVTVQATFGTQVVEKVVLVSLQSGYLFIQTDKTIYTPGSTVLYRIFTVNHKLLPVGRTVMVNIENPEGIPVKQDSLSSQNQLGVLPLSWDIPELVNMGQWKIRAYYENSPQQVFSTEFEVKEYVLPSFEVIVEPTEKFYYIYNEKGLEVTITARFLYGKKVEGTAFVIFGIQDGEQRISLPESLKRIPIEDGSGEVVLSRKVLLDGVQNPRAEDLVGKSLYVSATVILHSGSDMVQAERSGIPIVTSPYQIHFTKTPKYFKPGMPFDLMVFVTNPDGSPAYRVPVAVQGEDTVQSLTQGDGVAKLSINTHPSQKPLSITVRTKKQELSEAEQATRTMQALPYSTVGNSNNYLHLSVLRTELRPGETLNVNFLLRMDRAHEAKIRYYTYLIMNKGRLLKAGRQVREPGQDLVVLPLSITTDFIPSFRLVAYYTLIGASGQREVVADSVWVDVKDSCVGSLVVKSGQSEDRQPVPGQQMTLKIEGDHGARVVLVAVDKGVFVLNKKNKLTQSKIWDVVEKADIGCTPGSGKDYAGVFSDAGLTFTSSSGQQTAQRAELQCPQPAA
T8 sequence (P01024 672-1663 limits assumed, chain 2 of 2): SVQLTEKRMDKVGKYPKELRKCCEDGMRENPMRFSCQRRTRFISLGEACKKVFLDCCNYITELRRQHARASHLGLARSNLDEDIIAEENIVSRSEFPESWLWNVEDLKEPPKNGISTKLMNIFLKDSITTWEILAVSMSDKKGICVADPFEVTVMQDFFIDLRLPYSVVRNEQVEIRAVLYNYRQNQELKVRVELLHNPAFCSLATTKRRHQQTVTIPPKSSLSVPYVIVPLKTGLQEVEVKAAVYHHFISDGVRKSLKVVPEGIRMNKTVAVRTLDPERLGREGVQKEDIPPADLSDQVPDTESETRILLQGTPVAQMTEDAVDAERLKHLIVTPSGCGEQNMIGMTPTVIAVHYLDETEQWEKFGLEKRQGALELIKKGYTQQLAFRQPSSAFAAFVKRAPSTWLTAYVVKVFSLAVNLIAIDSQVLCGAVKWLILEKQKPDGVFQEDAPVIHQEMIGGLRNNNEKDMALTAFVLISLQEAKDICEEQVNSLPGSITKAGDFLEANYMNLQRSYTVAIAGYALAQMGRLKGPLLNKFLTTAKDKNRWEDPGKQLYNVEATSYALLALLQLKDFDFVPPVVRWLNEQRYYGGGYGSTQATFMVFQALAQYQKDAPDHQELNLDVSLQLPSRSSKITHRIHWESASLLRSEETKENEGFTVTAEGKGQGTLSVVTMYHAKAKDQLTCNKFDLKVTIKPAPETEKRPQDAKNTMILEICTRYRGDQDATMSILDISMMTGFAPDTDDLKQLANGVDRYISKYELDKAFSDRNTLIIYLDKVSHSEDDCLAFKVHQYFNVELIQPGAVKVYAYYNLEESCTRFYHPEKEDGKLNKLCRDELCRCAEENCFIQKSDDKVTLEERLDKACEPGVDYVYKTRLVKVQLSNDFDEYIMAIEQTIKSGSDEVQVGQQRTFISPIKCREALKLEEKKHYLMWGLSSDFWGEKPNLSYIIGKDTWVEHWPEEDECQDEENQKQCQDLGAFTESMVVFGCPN
T7 sequence (P01024 23-667 limits assumed, chain 1 of 2): as the sequence (P01024 23-667 limits assumed, chain 1 of 2) above
T7 sequence (P01024 749-1663 limits assumed, chain 2 of 2): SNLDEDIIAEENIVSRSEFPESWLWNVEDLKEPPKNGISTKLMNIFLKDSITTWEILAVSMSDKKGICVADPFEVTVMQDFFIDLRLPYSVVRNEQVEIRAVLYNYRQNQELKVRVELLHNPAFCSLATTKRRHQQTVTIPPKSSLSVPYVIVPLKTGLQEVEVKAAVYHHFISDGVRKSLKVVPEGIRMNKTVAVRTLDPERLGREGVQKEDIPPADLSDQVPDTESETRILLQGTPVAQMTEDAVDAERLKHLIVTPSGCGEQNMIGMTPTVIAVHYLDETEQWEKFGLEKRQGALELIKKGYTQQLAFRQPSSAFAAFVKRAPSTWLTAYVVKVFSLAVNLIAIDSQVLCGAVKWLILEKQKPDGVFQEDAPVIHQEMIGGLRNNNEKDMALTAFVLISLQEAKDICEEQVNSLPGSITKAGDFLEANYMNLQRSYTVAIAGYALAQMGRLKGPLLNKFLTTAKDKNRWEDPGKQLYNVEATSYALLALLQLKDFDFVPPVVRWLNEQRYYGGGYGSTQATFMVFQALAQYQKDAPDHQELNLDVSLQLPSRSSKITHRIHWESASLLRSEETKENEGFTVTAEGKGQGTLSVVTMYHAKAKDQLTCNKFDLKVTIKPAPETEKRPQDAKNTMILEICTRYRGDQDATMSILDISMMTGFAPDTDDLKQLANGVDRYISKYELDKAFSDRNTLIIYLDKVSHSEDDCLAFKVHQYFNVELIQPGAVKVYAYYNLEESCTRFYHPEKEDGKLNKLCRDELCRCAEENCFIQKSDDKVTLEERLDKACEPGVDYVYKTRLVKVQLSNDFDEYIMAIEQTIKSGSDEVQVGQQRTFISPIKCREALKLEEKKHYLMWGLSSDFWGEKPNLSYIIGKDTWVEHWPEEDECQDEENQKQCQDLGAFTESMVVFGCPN
T9 sequence (P01024 23-667 limits assumed, chain 1 of 2): as the sequence (P01024 23-667 limits assumed, chain 1 of 2) above
T9 sequence (P01024 672-1663 limits assumed, chain 2 of 2): as the sequence (P01024 672-1663 limits assumed, chain 2 of 2) above
T4 sequence (P01024 996-1303 L1109A limits assumed): as the sequence (P01024 996-1303 limits assumed) above, with L114A counted along it
T6 sequence (P01024 672-748 limits assumed): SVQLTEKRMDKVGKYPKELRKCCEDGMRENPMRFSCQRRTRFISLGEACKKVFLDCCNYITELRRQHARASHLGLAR
T5 sequence (P01024 23-667 limits assumed, chain 1 of 3): as the sequence (P01024 23-667 limits assumed, chain 1 of 2) above
T5 sequence (P01024 749-954 limits assumed, chain 2 of 3): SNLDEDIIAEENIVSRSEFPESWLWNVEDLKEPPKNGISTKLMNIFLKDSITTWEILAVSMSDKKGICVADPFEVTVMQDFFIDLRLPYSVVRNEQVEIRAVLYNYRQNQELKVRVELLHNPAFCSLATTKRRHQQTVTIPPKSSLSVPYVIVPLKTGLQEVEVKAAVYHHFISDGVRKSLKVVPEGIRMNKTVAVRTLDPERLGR
T5 sequence (P01024 1321-1663 limits assumed, chain 3 of 3): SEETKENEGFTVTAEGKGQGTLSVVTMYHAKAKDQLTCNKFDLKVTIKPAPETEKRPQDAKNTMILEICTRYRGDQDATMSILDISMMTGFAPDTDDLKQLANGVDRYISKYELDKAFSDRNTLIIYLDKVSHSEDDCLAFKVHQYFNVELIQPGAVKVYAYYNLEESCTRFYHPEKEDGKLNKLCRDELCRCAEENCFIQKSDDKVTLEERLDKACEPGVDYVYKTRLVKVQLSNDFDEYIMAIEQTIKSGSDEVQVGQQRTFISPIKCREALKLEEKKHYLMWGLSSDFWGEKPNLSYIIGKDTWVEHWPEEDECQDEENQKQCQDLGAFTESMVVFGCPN
T2 sequence (P01024 996-1303 E1110A limits assumed): as the sequence (P01024 996-1303 limits assumed) above, with E115A counted along it

One may read the Kd as the concentration at which binding is half-saturated. What is called kon is a measure of how fast the partners come together. As a reminder, the koff is the first-order rate constant of dissociation. The molecule “His-ISG65 18-363-Avi, biotinylated at the C-terminal Avi-tag (receptor)” yielded an ISG65 binding (%) in the assay with His-C3d N1134A (human) [1] of 25%. Moreover, the Kd with His-C3d N1134A (human) [2] came out at 28.6 nM. The molecule also registered a kon in the assay with His-C3d N1134A (human) [3] of 1.89e+06 M⁻¹ s⁻¹. The same molecule came in with a dissociation rate constant (koff) with His-C3d N1134A (human) [4] of 0.0542 s⁻¹.

B1: His-ISG65 18-363 T297A (receptor)
chain: MGSSHHHHHHSSGLVPRGSHMLLVIGSEDNRVPGDKKLTKEGAAALCKMKHLADKVAKERSQELKDRTQNFAGYIEFELYRIDYWLEKLNGPKGRKDGYAKLSDSDIEKVKEIFNKAKDGITKQLPEAKKAGEEAGKLHTEVKKAAENARGQDLDDDTAKSTGLYRVLNWYCITKEERHNATPNCDGIQFRKHYLSVNRSAIDCSSTSYEENYDWSANALQVALNSWEDVKPKKLESAGSDKNCNIGQSSESHPCTMTEEWQTPYKETVEKLRELEDAYQRGKKAHDAMLGYANTAYAVNAKVEQEKPLTEVIAAAKEAGKKGAKIIIPAAAPATPTNSTKNDDSAPTEHVDRGIATNETQVEVGID
notes: also called ISG65 T297A
B1: in assay [5], the “C3d binding (%)” value was found to be 15%. In assay [6], binding was characterised by a dissociation constant (Kd) of 182 nM and the koff2 was found to be 0.002 s⁻¹. For the same molecule, in assay [7], the kon worked out at 171000 M⁻¹ s⁻¹. The molecule further displayed a koff in assay [8] of 0.05 s⁻¹.

B2: His-ISG65 18-363-Avi, biotinylated at the C-terminal Avi-tag (receptor)
chain: B1 chain with A301T
modifications: site-specific biotinylation of the C-terminal Avi-tag
notes: SPR ligand captured on a Series S sensor chip CAP; also called ISG65-Avi; biotinylated ISG65; not shown: C-terminal Avi-tag
For B2, the “ISG65 binding (%)” value in the assay with His-C3d E1110A amounted to 8%; in assay [9], 100%; in the assay with His-C3d L1109A [10], 45%. Besides, the binding result in assay [11] was “no binding (tested: 280 nM)”. The Kd in assay [12] was 18100 nM; in [13], 80.9 nM; in assay [14], 7.2 nM; in assay [15] it was 18 nM; in the assay with His-C3d L1109A [18] it was 52.9 nM; in assay [25], 129 nM. The kon came to 262000 M⁻¹ s⁻¹ in assay [16], 5.24e+06 M⁻¹ s⁻¹ in [19], 942000 M⁻¹ s⁻¹ in [21] and 81800 M⁻¹ s⁻¹ in assay [23]. Moreover, the koff in assay [17] was determined as 0.0212 s⁻¹; in assay [20], 0.0379 s⁻¹; in assay [22] it was 0.017 s⁻¹; in assay [24], 0.0543 s⁻¹.

B3: His-ISG65 18-363 W211A (receptor)
chain: B1 chain with W215A, A301T
notes: also called ISG65 W211A
In the case of B3, the “C3d binding (%)” value in assay [5] was 42%. Also, the koff2 in assay [6] is 0.39 s⁻¹. In assay [26], this molecule had a kon of 320000 M⁻¹ s⁻¹. For the same molecule, in assay [27], the koff was 0.16 s⁻¹. The molecule also returned a Kd in assay [28] of 66.8 nM.

B4: His-ISG65 18-363 Y70A (receptor)
chain: B1 chain with Y74A, A301T
notes: also called ISG65 Y70A
On to B4, for which the “C3d binding (%)” value in [5] amounted to 36%. Besides, the koff2 in assay [6] amounted to 0.58 s⁻¹. In assay [26], this molecule came in with an on-rate constant (kon) of 118000 M⁻¹ s⁻¹. Moreover, the koff in assay [27] turned out to be 0.14 s⁻¹. The molecule further returned a Kd in [28] of 78.2 nM.

B5: ISG65 M2 (thermostable mutant of the ISG65 extracellular domain 18-363 with N-terminal His-tag) (receptor)
chain: MGSSHHHHHHSSGLVPRGSHMLLVIGSEDNRVPGDKKLTKEGAAALCKMKHLADKVAKERSQELKDRTQNFAGYIEFELYRIDYWLEKLNGPKGRKDGYAKLSDSDIKKVKEIFEKAKDGITKQLPEAKKAAEEAEKLHQEVKEAAEKARGQDLDDDTAKSTGLYRVLNWYCITKEERHNATPNCDGIQFRKHYLSVNRSAIDCSSTSYEENYDWSANALQVALNSWEDKKPKKLESAGSDKNCNIGQSSESHPCTMTEEWQTHYKETIEKLRELEEAYQRGKKAHDDMLGYANTAYAVNTKVEQEKPLSEVIAAAKEAGKKGAKIIIPAAAPATPTNSTKNDDSAPTEHVDRGIATNETQVEVGID
With B5, the “relative AP50 of human plasma, day 0” value in assay [29] is 15 fold.
